Experiment [1] deals with T1, sRAGE (V-C1-C2) lot LP08062 (human, UniProt Q15109 23-331, limits assumed).
T1 construct: domain: V-C1-C2; also called Human RAGE; LP08062 (Rage)
Nature of the experiment: SPR (Biacore), mAb captured on anti-mouse Fc, sRAGE 15 nM, Langmuir 1:1. As to the method:
The assay is based on a capture assay using immobilized anti-mouse Fc IgG on CM5 chip. For immobilization of anti-Fc antibody HBS-EP was used as running buffer. Standard amine coupling to a CM5 chip was carried out at a contact time of 11 min and a flow rate of 10 μl/min. 10 mM Sodium Acetate pH 5.0 was used as immobilization buffer. The protein concentration (anti-mouse Fc, Biacore BR-1008-38) was 100 μg/mL.
For binding analysis SN anti-RAGE mAb diluted in running buffer at 1/10 (flow rate 5 μl/min) and sRAGE (V-C1-C2) lot LP08062 diluted in running buffer at 15 nM (flow rate 50 μl/min) was used as […], respectively (running buffer: HBS-P+BSA 12 mg/mL+CM Dextran 12 mg/mL and Regeneration solution: 10 mM Glycine pH 1.7). Langmuir 1:1 analysis was used as fitting model.

Another experiment deals with T2, RAGE V-C1 domains (UniProt Q15109 23-233, limits assumed).
T2 construct: domain: V-C1 domains
T2 sequence (Q15109 23-233 limits assumed): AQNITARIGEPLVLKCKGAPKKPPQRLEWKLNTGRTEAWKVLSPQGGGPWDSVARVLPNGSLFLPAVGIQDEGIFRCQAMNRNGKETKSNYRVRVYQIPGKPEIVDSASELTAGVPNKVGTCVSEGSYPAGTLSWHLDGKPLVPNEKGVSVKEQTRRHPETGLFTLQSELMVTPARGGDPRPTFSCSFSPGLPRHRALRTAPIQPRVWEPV
Nature of the experiment: domain mapping, Table 1.

In another experiment the target is T3, RAGE V domain (UniProt Q15109 23-121, limits assumed).
T3 construct: domain: V domain
T3 sequence (Q15109 23-121 limits assumed): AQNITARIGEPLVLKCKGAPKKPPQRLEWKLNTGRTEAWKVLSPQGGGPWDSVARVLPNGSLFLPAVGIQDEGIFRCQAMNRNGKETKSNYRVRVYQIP
The experiment can be described thus: domain mapping, Table 1.

Experiment [2] has as its target T4, RAGE-Fc (human, UniProt Q15109 23-344, limits assumed).
T4 construct: also called hRAGE; not shown: Fc part, detected with anti-hIgG Fc-specific conjugate
Nature of the experiment: competition ELISA, RAGE-Fc binding to coated S100A6. How it is done: (§1) For the S100A6 Competition ELISA Assay wells have been coated with S100A6 at 0.5 μg/well. Thereafter, RAGE-Fc at 10 μg/mL and competing mAb at 10 μg/mL have been pre-incubated at room temperature for 30 min. The mixture was transferred into S100A6-coated plates and incubated under agitation at room temperature for 2 hours. Bound RAGE-Fc was detected with anti-hIgG Fc-specific-POD using TMB (3, 3′, 5, 5′-Tetramethylbenzidine) at 450 nm.
For this, coating with S100A6 was carried out as detailed above. RAGE-Fc at 10 μg/mL was incubetd with competing mAb (2-fold serial dilutions starting at 100 μg/ml at room temperature for 2 hours. Binding was detected by anti IgG Fc-specific antibody peroxydase conjugate using TMB1 component HRP at 450 nm.
For orientation: In an ELISA, binding on a coated surface is turned into a signal by an enzyme label.

Experiment [3] addresses T4, RAGE-Fc. The experiment can be described thus: competition ELISA, hRAGE-S100A6 interaction.
Another experiment deals with mouse sRAGE (mouse, UniProt Q62151 23-340, limits assumed). Nature of the experiment: ELISA, O.D. 450 nm, one bar per species; plate format and antibody concentration not given.
Chain of mouse sRAGE (Q62151 23-340 limits assumed): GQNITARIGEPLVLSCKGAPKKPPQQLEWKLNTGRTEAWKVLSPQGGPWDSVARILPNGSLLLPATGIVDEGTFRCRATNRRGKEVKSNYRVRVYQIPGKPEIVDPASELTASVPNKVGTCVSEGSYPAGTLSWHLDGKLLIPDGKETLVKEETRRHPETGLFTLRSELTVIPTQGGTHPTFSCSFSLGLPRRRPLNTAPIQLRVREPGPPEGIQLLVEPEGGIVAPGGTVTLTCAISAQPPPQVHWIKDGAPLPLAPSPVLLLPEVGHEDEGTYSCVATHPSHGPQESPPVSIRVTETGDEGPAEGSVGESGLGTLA
For another experiment, the target named is rat sRAGE (rat, UniProt Q63495 23-341, limits assumed). The description is as above.
Chain of rat sRAGE (Q63495 23-341 limits assumed): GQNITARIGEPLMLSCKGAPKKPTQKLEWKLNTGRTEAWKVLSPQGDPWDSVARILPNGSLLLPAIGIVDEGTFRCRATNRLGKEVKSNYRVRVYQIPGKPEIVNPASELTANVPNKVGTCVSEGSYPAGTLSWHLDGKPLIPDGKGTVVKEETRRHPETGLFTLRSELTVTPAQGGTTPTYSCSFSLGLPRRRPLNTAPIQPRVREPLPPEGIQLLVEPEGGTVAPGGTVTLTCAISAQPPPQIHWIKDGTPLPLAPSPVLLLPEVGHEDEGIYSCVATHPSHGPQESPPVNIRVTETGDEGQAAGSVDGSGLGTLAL
In experiment [4] the target is T4, RAGE-Fc. The experiment can be described thus: competition ELISA, hRAGE-HMGB1 interaction.
Experiment [5] concerns the target T4, RAGE-Fc. Nature of the experiment: competition ELISA, RAGE-HMGB1 interaction.
For experiment [6], the target named is T4, RAGE-Fc. Nature of the experiment: competition ELISA, hRAGE-S100B interaction.
For experiment [7], the target named is T4, RAGE-Fc. Nature of the experiment: competition ELISA, RAGE-S100A6 interaction.
The target in a further experiment is T5, RAGE C2 domain (UniProt Q15109 235-327, limits assumed).
T5 construct: domain: C2 domain
T5 sequence (Q15109 235-327 limits assumed): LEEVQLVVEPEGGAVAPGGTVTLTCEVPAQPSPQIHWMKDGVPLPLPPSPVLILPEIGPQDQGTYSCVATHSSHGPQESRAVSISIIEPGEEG
Nature of the experiment: domain mapping, Table 1.

In experiment [8] the target is T4, RAGE-Fc. Nature of the experiment: competition ELISA against S100A6, mAb 10 µg/mL. As to the method:
as §1

Experiment [9] addresses T4, RAGE-Fc. The experiment can be described thus: competition ELISA, RAGE-S100B interaction.

Values joined by “and” are separate entries in the source; they are usually repeats but may differ in a detail not shown here. Identical values can stand only once.

T4 sequence (Q15109 23-344 limits assumed): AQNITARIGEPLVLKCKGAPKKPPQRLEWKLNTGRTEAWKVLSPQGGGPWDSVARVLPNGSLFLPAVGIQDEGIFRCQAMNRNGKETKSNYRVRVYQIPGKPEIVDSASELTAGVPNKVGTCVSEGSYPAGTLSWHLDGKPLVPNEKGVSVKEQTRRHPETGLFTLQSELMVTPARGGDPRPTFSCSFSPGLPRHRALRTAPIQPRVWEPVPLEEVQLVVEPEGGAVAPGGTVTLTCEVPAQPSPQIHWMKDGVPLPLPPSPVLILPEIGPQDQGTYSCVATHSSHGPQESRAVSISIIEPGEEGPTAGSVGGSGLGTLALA
T1 sequence (Q15109 23-331 limits assumed): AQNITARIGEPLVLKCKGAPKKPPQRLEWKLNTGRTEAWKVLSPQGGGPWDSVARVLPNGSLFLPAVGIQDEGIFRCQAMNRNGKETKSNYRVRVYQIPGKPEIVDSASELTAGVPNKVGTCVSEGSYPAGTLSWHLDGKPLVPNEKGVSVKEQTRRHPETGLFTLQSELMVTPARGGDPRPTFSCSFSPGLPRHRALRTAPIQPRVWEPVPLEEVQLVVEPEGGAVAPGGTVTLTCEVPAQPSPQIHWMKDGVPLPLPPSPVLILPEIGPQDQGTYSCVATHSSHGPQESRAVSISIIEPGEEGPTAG

B1: 164 RAGE-1 (antibody, V domains shown)
VH: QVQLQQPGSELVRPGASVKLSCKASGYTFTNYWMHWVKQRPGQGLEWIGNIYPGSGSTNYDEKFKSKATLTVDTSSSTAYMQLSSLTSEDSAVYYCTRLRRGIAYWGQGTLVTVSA
VL: NIVMTQSPKSMSMSVGERVTLSCKASENVGTYVSWYQQKPEQSPKLLIYGASNRYTGVPDRFTGSGSATDFTLTISSVQAEDLADYHCGQSYTYPYTFGGGTKLEIK
notes: Anti-RAGE monoclonal antibody from a hybridoma, captured by anti-mouse Fc; also called LP08106; Protein 164 RAGE-1
Consider B1, for which, in experiment [1], the affinity, expressed as Kd, was 1.13 nM; the koff (as a rule, the rate constant with which the complex falls apart) was found to be 0.00203 s⁻¹; the kon (commonly the rate constant with which the complex forms) came to 1.8e+06 M⁻¹ s⁻¹. For the same molecule, the binding result in the experiment with RAGE V-C1 domains is given as “no binding”. Further, the binding result in the experiment with RAGE V domain is given as “no binding”.

B2: 158 RAGE-1 (antibody, V domains shown)
VH: QIQLVQSGPELKKPGETVKISCKASGYTFTDYSMHWVKQAPGKGLKWMGWINTETGEPTYADDFKGRFAFSLETSASTAYLLINNLKTEDTATYFCARDYLYYYAMDYWGQGTSVTVSS
VL: DVVLTQTPLSLPVNIGDQASISCKSTKSLLNSDGFTYLDWYLQKPGQSPQLLIYLVSNRFSGVPDRFSGSGSGTDFTLKISRVEAEDLGVYYCFQSNYLPLTFGGGTKVEIK
notes: Anti-RAGE monoclonal antibody from a hybridoma, captured by anti-mouse Fc; also called LP08105
Consider B2, for which the IC50 (as a rule, the concentration needed to halve the response being measured) with RAGE-Fc [2] is 6.79 µg/mL; with RAGE-Fc [4], 0.29 µg/mL and 1.39 nM; with RAGE-Fc [5], 1.4 nM; with RAGE-Fc [6] it was 0.109 µg/mL; in the experiment with RAGE-Fc [7] it was 45.3 nM; with RAGE-Fc [9], 0.7 nM. This molecule registered a maximum inhibitory effect with RAGE-Fc [3] not above 50%. The results for the binding result with mouse sRAGE, with rat sRAGE and in the experiment with RAGE C2 domain were “no binding (tested: not given)”, “no binding (tested: not given)” and “no binding”, respectively. Moreover, in experiment [1], binding was characterised by a dissociation constant (Kd) of 0.629 nM. Besides, the koff in [1] was 0.00253 s⁻¹. Also, the kon in [1] came out at 4.02e+06 M⁻¹ s⁻¹. Also, the inhibitory effect with RAGE-Fc [8] was more than 20%.

B3: 240 RAGE-1 (antibody, V domains shown)
VH: QIQLVQSGPELKKPGETVKISCKASGYTFTDYSMHWVKQAPGKGLKWMGWINTETGEPTYADDFKGRFAFSLETSASTAYLQINNLKNEDTATYFCARDYLYYYAMDYWGQGTSVTVSS
VL: DVVLTQTPLSLPVSIGDQASISCKSTKSLLNSDGFTYLDWYLQKPGQSPQLLIYLVSNRFSGVPDSFSGSGSGTDFTLKISRVEAEDLGVYYCFQSNYFPLTFGGGTTLEIK
notes: Anti-RAGE monoclonal antibody from a hybridoma, captured by anti-mouse Fc; also called LP08108
In the case of B3, the IC50 was 6.66 µg/mL in the experiment with RAGE-Fc [2]; 0.31 µg/mL and 2.06 nM in the experiment with RAGE-Fc [4]; 2.1 nM with RAGE-Fc [5]; 0.123 µg/mL with RAGE-Fc [6]; 44.4 nM with RAGE-Fc [7]; 0.8 nM with RAGE-Fc [9]. The maximum inhibitory effect with RAGE-Fc [3] was not above 50%. Also, the binding result in the experiment with mouse sRAGE is “no binding (tested: not given)”; with rat sRAGE, “no binding (tested: not given)”; in the experiment with RAGE C2 domain it was “no binding”. Further, binding in experiment [1] was characterised by a dissociation constant (Kd) of 0.222 nM. For the same molecule, the koff in experiment [1] came to 0.000769 s⁻¹. The kon in experiment [1] stood at 3.47e+06 M⁻¹ s⁻¹. Besides, in the experiment with RAGE-Fc [8], the inhibitory effect was more than 20%.

B4: Control XT-M4 (antibody, V domains shown)
VH: EVQLVESGGGLVQPGRSLKLSCVVSGFTFNNYWMTWIRQTPGKGLEWVASINNSGDNTYYPDSVKDRFTISRDNAKSTLYLQMNSLRSEDTATYYCTRGGDITTGFDYWGQGVMVTVSS
VL: DIQMTQSPSSMSVSLGDTITITCRASQDVGIYVNWFQQKPGKSPRRMIYRATNLADGVPSRFSGSRSGSIYSLTISSLESEDVADYHCLEFDEHPLTFGSGTKVEIK
For B4, the IC50 with RAGE-Fc [2] stood at 5.2 µg/mL; with RAGE-Fc [4], 0.272 µg/mL; with RAGE-Fc [5], 1.79 nM; with RAGE-Fc [6] it was 0.208 µg/mL; with RAGE-Fc [7], 34.6 nM; with RAGE-Fc [9], 1.37 nM.

B5: 56 RAGE-1 (antibody, V domains shown)
VH: QVQLQQSGPELVKPGASVRISCKASGYTFTSYFIHWVKQRPGQGLEWIGWIYPGNVNTKYNEKFKDKATLTADKSSSTAYMQLSNLTSEDSAVYFCVRGQLGDYWGQGITLTVSS
VL: DIVMTQSQKFMSTSVGDRVSVTCKASQNVGINVAWYQQKPGQSPKALIYSASYRYSGVPDRFTGSGSGTDFTLIISNVQSEDLAEYFCQQYNNYPRTFGGGTKLEIK
notes: Anti-RAGE monoclonal antibody from a hybridoma, captured by anti-mouse Fc; also called LP08103; Protein 56 RAGE-1
With B5, in the experiment with RAGE-Fc [2], the IC50 was 1.16 µg/mL and 7.73 nM. In addition, the maximum inhibitory effect with RAGE-Fc [3] was not above 50%. Also, in experiment [1], the Kd (in general, the equilibrium constant for the complex coming apart) came to 1.87 nM; the koff came out at 0.00539 s⁻¹; the kon worked out at 2.89e+06 M⁻¹ s⁻¹. This molecule also yielded an IC50 with RAGE-Fc [7] of 7.7 nM. In addition, in the experiment with RAGE V-C1 domains, the binding result is given as “no binding”. For the same molecule, the binding result in the experiment with RAGE V domain is reported as “no binding”. In the experiment with RAGE-Fc [8], this molecule displayed an inhibitory effect of more than 20%.

The values are drawn from patent US20120282637A1 (Sanofi, published 2012).
